This experiment addresses T1, EPHB6 (human, UniProt O15197).
T1 chain: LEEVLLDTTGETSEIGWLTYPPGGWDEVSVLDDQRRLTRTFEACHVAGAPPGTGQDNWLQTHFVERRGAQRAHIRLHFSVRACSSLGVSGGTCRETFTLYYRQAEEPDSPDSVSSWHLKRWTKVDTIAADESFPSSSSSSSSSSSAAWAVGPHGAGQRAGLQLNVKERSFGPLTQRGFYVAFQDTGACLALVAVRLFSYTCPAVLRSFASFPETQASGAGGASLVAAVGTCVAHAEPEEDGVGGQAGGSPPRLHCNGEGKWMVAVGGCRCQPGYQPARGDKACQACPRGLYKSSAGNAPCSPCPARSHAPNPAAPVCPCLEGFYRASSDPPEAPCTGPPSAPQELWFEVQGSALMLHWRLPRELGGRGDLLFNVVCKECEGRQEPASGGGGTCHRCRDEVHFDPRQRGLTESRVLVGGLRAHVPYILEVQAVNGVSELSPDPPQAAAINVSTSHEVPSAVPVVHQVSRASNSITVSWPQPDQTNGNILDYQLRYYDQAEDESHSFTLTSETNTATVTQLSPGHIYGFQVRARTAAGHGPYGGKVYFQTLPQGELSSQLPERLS
Put plainly: FACS. On the technique in general: Flow cytometry measures light scatter and fluorescence of single cells or particles in a stream.

B1: hLFTT-1 VH4/VL5 (antibody, V domains shown)
VH: QIQLVQSGSELKKPGASVKVSCKASGYTFTTYGMSWVRQAPGQGLKWMGWIYTYSGVPTYADDLTGRFVFSLDTSVSTAYLQISSLKAEDTATYYCARVRDGYYRYAMDYWGRGTLVTVSS
VL: DIQMTQSPSSLSVSVGDRVTITCKASQDINRYIAWYQQQPGKAPKLLIHFTSTLQSGVPSRFSGSGSGTDFTFTISSLQPEDIATYYCLQYDDLRTFGQGTKLEIK
B1: the EC50 (as a rule, the midpoint of the concentration-response curve) is greater than 300 µg/mL.

The record behind these values is patent US20260373262 (published 2026).
